Substrate in this data set: O=C(O)CO
Briefly: purified protein. The note with it: FMN.

B1: glycolate oxidase (GO); hydroxyacid oxidase 1 (HAO1) (Homo sapiens) (protein)
chain: MLPRLICINDYEQHAKSVLPKSIYDYYRSGANDEETLADNIAAFSRWKLYPRMLRNVAETDLSTSVLGQRVSMPICVGATAMQRMAHVDGELATVRACQSLGTGMMLSSWATSSIEEVAEAGPEALRWLQLYIYKDREVTKKLVRQAEKMGYKAIFVTVDTPYLGNRLDDVRNRFKLPPQLRMKNFETSTLSFSPEENFGDDSGLAAYVAKAIDPSISWEDIKWLRRLTSLPIVAKGILRGDDAREAVKHGLNGILVSNHGARQLDGVPATIDVLPEIVEAVEGKVEVFLDGGVRKGTDVLKALALGAKAVFVGRPIVWGLAFQGEKGVQDVLEILKEEFRLAMALSGCQNVKVIDKTLVRKNPLAVSKI
With B1, the Km was found to be 74.5 µM.

The Km is the substrate concentration at which the rate is half of its maximum.

These data come from PMC5037430, “High throughput cell-based assay for identification of glycolate oxidase inhibitors as a potential treatment for Primary Hyperoxaluria Type 1” (Scientific Reports, 2016).
